Laboratory results from the supplement of paper PMC10567573.

B1: C1orf137 (parent)
chain: RQHHHQSSFPGSLPQETNLTLKVC

Variants of: B1
Test: protein stability index of a GFP-peptide fusion (GPS, HEK-293T) (PSI 1-6); higher = more stable
Conditions: c terminus: a fixed tail appended
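Note: lentivirally expressed fusions sorted by FACS into six bins by GFP to DsRed ratio, PSI derived from sequencing read proportions per bin multiplied by bin number.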

Row | Variant | protein stability index
1 | RQHHHQSAFPGSLPQETNLTLKVC | 2.81
2 | RQHHHQSFFPGSLPQETNLTLKVC | 1.84
3 | RQHHHQSCFPGSLPQETNLTLKVC | 2.67
4 | RQHHHQSEFPGSLPQETNLTLKVC | 3.85
5 | RQHHHQSRFPGSLPQETNLTLKVC | 2.57
6 | RQHHHQSVFPGSLPQETNLTLKVC | 2.78
7 | RQHHHQSIFPGSLPQETNLTLKVC | 3.03
8 | RQHHHQSWFPGSLPQETNLTLKVC | 2
9 | RQHHHQSMFPGSLPQETNLTLKVC | 2.68
10 | RQHHHQSKFPGSLPQETNLTLKVC | 3.07
11 | RQHHHQSYFPGSLPQETNLTLKVC | 2.02
12 | RQHHHQSLFPGSLPQETNLTLKVC | 2.45
13 | RQHHHQSNFPGSLPQETNLTLKVC | 3.08
14 | RQHHHQSQFPGSLPQETNLTLKVC | 2.9
15 | RQHHHQSHFPGSLPQETNLTLKVC | 2.45
16 | RQHHHQSPFPGSLPQETNLTLKVC | 2.71
17 | RQHHHQSTFPGSLPQETNLTLKVC | 2.71
18 | RQHHHQSGFPGSLPQETNLTLKVC | 2.47
19 | RQHHHQSDFPGSLPQETNLTLKVC | 2.89
20 | RQHHHQSSFPGSLPKETNLTLKVC | 2.46
21 | RQHHHQSSFPGSLPLETNLTLKVC | 2.19
22 | RQHHHQSSFPGSLPEETNLTLKVC | 3.65
23 | RQHHHQSSFPGSLPAETNLTLKVC | 2.03
24 | RQHHHQSSFPGSLPPETNLTLKVC | 3.05

Row | Variant | protein stability index
25 | RQHHHQSSFPGSLPTETNLTLKVC | 3.34
26 | RQHHHQSSFPGSLPSETNLTLKVC | 3.36
27 | RQHHHQSSFPGSLPIETNLTLKVC | 2.53
28 | RQHHHQSSFPGSLPRETNLTLKVC | 2.54
29 | RQHHHQSSFPGSLPGETNLTLKVC | 2.19
30 | RQHHHQSSFPGSLPFETNLTLKVC | 1.71
31 | RQHHHQSSFPGSLPDETNLTLKVC | 3.26
32 | RQHHHQSSFPGSLPNETNLTLKVC | 2.47
33 | RQHHHQSSFPGSLPMETNLTLKVC | 2.29
34 | RQHHHQSSFPGSLPHETNLTLKVC | 2.51
35 | RQHHHQSSFPGSLPCETNLTLKVC | 2.56
36 | RQHHHQSSFPGALPQETNLTLKVC | 3.19
37 | RQHHHQSSFPGKLPQETNLTLKVC | 2.98
38 | RQHHHQSSFPGRLPQETNLTLKVC | 3.17
39 | RQHHHQSSFPGHLPQETNLTLKVC | 2.38
40 | RQHHHQSSFPGILPQETNLTLKVC | 2.41
41 | RQHHHQSSFPGELPQETNLTLKVC | 3.46
42 | RQHHHQSSFPGLLPQETNLTLKVC | 2.66
43 | RQHHHQSSFPGYLPQETNLTLKVC | 2.27
44 | RQHHHQSSFPGQLPQETNLTLKVC | 2.55
45 | RQHHHQSSFPGFLPQETNLTLKVC | 2.41
46 | RQHHHQSSFPGGLPQETNLTLKVC | 2.96
47 | RQHHHQSSFPGMLPQETNLTLKVC | 2.73
48 | RQHHHQSSFPGPLPQETNLTLKVC | 2.82

Row | Variant | protein stability index
49 | RQHHHQSSFPGCLPQETNLTLKVC | 2.37
50 | RQHHHQSSFPGDLPQETNLTLKVC | 3.19
51 | RQHHHQSSFPGWLPQETNLTLKVC | 2.44
52 | RQHHHQSSFPGTLPQETNLTLKVC | 2.99
53 | RQHHHQSSFPGVLPQETNLTLKVC | 3.38
54 | RQHHHQSSFPGNLPQETNLTLKVC | 2.99
55 | RQHHHQFSFPGSLPQETNLTLKVC | 2.36
56 | RQHHHQYSFPGSLPQETNLTLKVC | 2.54
57 | RQHHHQHSFPGSLPQETNLTLKVC | 2.83
58 | RQHHHQTSFPGSLPQETNLTLKVC | 3.34
59 | RQHHHQGSFPGSLPQETNLTLKVC | 3.18
60 | RQHHHQQSFPGSLPQETNLTLKVC | 3.05
61 | RQHHHQCSFPGSLPQETNLTLKVC | 2.43
62 | RQHHHQISFPGSLPQETNLTLKVC | 2.77
63 | RQHHHQPSFPGSLPQETNLTLKVC | 3.52
64 | RQHHHQLSFPGSLPQETNLTLKVC | 2.79
65 | RQHHHQWSFPGSLPQETNLTLKVC | 2.43
66 | RQHHHQRSFPGSLPQETNLTLKVC | 3.34
67 | RQHHHQNSFPGSLPQETNLTLKVC | 3.68
68 | RQHHHQDSFPGSLPQETNLTLKVC | 3.23
69 | RQHHHQVSFPGSLPQETNLTLKVC | 2.89
70 | RQHHHQKSFPGSLPQETNLTLKVC | 3.11
71 | RQHHHQMSFPGSLPQETNLTLKVC | 2.43
72 | RQHHHQASFPGSLPQETNLTLKVC | 2.71

Row | Variant | protein stability index
73 | RQHHHQESFPGSLPQETNLTLKVC | 2.3
74 | RQHHHQSSFPGSLTQETNLTLKVC | 2.71
75 | RQHHHQSSFPGSLGQETNLTLKVC | 3.18
76 | RQHHHQSSFPGSLIQETNLTLKVC | 2.24
77 | RQHHHQSSFPGSLSQETNLTLKVC | 2.72
78 | RQHHHQSSFPGSLWQETNLTLKVC | 1.62
79 | RQHHHQSSFPGSLKQETNLTLKVC | 3.13
80 | RQHHHQSSFPGSLYQETNLTLKVC | 2.11
81 | RQHHHQSSFPGSLLQETNLTLKVC | 2.29
82 | RQHHHQSSFPGSLHQETNLTLKVC | 2.37
83 | RQHHHQSSFPGSLNQETNLTLKVC | 2.54
84 | RQHHHQSSFPGSLEQETNLTLKVC | 3.17
85 | RQHHHQSSFPGSLDQETNLTLKVC | 3.55
86 | RQHHHQSSFPGSLCQETNLTLKVC | 2.85
87 | RQHHHQSSFPGSLQQETNLTLKVC | 3.44
88 | RQHHHQSSFPGSLAQETNLTLKVC | 3.15
89 | RQHHHQSSFPGSLMQETNLTLKVC | 2.02
90 | RQHHHQSSFPGSLRQETNLTLKVC | 2.4
91 | RQHHHQSSFPGSLVQETNLTLKVC | 2.55
92 | RQHHHQSSFPGSLFQETNLTLKVC | 2
93 | RQHHHMSSFPGSLPQETNLTLKVC | 2.23
94 | RQHHHGSSFPGSLPQETNLTLKVC | 3.22
95 | RQHHHESSFPGSLPQETNLTLKVC | 2.88
96 | RQHHHDSSFPGSLPQETNLTLKVC | 3.39

Row | Variant | protein stability index
97 | RQHHHWSSFPGSLPQETNLTLKVC | 2.27
98 | RQHHHPSSFPGSLPQETNLTLKVC | 2.55
99 | RQHHHHSSFPGSLPQETNLTLKVC | 3.36
100 | RQHHHASSFPGSLPQETNLTLKVC | 2.61
101 | RQHHHTSSFPGSLPQETNLTLKVC | 2.49
102 | RQHHHVSSFPGSLPQETNLTLKVC | 2.89
103 | RQHHHRSSFPGSLPQETNLTLKVC | 4.03
104 | RQHHHNSSFPGSLPQETNLTLKVC | 2.71
105 | RQHHHSSSFPGSLPQETNLTLKVC | 3.25
106 | RQHHHCSSFPGSLPQETNLTLKVC | 1.72
107 | RQHHHISSFPGSLPQETNLTLKVC | 2.37
108 | RQHHHYSSFPGSLPQETNLTLKVC | 2.9
109 | RQHHHLSSFPGSLPQETNLTLKVC | 2.49
110 | RQHHHKSSFPGSLPQETNLTLKVC | 3.15
111 | RQHHHFSSFPGSLPQETNLTLKVC | 2.3
112 | RQHHYQSSFPGSLPQETNLTLKVC | 2.85
113 | RQHHWQSSFPGSLPQETNLTLKVC | 2.27
114 | RQHHVQSSFPGSLPQETNLTLKVC | 3.23
115 | RQHHTQSSFPGSLPQETNLTLKVC | 3.28
116 | RQHHHQSSFPGSVPQETNLTLKVC | 3.65
117 | RQHHHQSSFPGSTPQETNLTLKVC | 3.51
118 | RQHHHQSSFPGSFPQETNLTLKVC | 2.78
119 | RQHHHQSSFPGSGPQETNLTLKVC | 2.98
120 | RQHHHQSSFPGSKPQETNLTLKVC | 3.16

Row | Variant | protein stability index
121 | RQHHHQSSFPGSDPQETNLTLKVC | 4
122 | RQHHHQSSFPGSMPQETNLTLKVC | 3.29
123 | RQHHHQSSFPGSCPQETNLTLKVC | 2.79
124 | RQHHHQSSFPGSRPQETNLTLKVC | 2.97
125 | RQHHHQSSFPGSHPQETNLTLKVC | 3.21
126 | RQHHHQSSFPGSEPQETNLTLKVC | 3.23
127 | RQHHHQSSFPGSNPQETNLTLKVC | 3.71
128 | RQHHHQSSFPGSQPQETNLTLKVC | 2.89
129 | RQHHHQSSFPGSAPQETNLTLKVC | 2.72
130 | RQHHHQSSFPGSWPQETNLTLKVC | 3.13
131 | RQHHHQSSFPGSYPQETNLTLKVC | 2.66
132 | RQHHHQSSFPGSIPQETNLTLKVC | 3.2
133 | RQHHHQSSFPGSSPQETNLTLKVC | 3.57
134 | RQHHHQSSFPGSPPQETNLTLKVC | 3.42
135 | RQHHHQSSFPTSLPQETNLTLKVC | 2.66
136 | RQHHHQSSFPESLPQETNLTLKVC | 4.03
137 | RQHHHQSSFPLSLPQETNLTLKVC | 2.72
138 | RQHHHQSSFPSSLPQETNLTLKVC | 2.9
139 | RQHHHQSSFPVSLPQETNLTLKVC | 2.98
140 | RQHHHQSSFPRSLPQETNLTLKVC | 2.44
141 | RQHHHQSSFPDSLPQETNLTLKVC | 2.25
142 | RQHHHQSSFPISLPQETNLTLKVC | 2.85
143 | RQHHHQSSFPPSLPQETNLTLKVC | 2.53
144 | RQHHHQSSFPMSLPQETNLTLKVC | 3.24

Row | Variant | protein stability index
145 | RQHHHQSSFPASLPQETNLTLKVC | 2.21
146 | RQHHHQSSFPWSLPQETNLTLKVC | 2.24
147 | RQHHHQSSFPFSLPQETNLTLKVC | 2.28
148 | RQHHHQSSFPCSLPQETNLTLKVC | 2.61
149 | RQHHHQSSFPQSLPQETNLTLKVC | 3.07
150 | RQHHHQSSFPYSLPQETNLTLKVC | 1.95
151 | RQHHHQSSFPHSLPQETNLTLKVC | 2.98
152 | RQHHHQSSFPNSLPQETNLTLKVC | 3.01
153 | RQHHHQSSFPKSLPQETNLTLKVC | 3.79
154 | RQHHHQSSGPGSLPQETNLTLKVC | 4.03
155 | RQHHHQSSYPGSLPQETNLTLKVC | 3.41
156 | RQHHHQSSIPGSLPQETNLTLKVC | 3.3
157 | RQHHHQSSNPGSLPQETNLTLKVC | 3.88
158 | RQHHHQSSDPGSLPQETNLTLKVC | 4.08
159 | RQHHHQSSHPGSLPQETNLTLKVC | 3.64
160 | RQHHHQSSSPGSLPQETNLTLKVC | 3.16
161 | RQHHHQSSKPGSLPQETNLTLKVC | 4.33
162 | RQHHHQSSAPGSLPQETNLTLKVC | 3.97
163 | RQHHHQSSCPGSLPQETNLTLKVC | 3.16
164 | RQHHHQSSWPGSLPQETNLTLKVC | 3.27
165 | RQHHHQSSPPGSLPQETNLTLKVC | 3.38
166 | RQHHHQSSLPGSLPQETNLTLKVC | 3.53
167 | RQHHHQSSRPGSLPQETNLTLKVC | 3.7
168 | RQHHHQSSTPGSLPQETNLTLKVC | 3.42

Row | Variant | protein stability index
169 | RQHHHQSSVPGSLPQETNLTLKVC | 3.46
170 | RQHHHQSSMPGSLPQETNLTLKVC | 3.18
171 | RQHHHQSSFYGSLPQETNLTLKVC | 2.4
172 | RQHHHQSSFEGSLPQETNLTLKVC | 2.6
173 | RQHHHQSSFFGSLPQETNLTLKVC | 2.27
174 | RQHHHQSSFIGSLPQETNLTLKVC | 2.56
175 | RQHHHQSSFSGSLPQETNLTLKVC | 3.46
176 | RQHHHQSSFTGSLPQETNLTLKVC | 3.25
177 | RQHHHQSSFKGSLPQETNLTLKVC | 3.44
178 | RQHHHQSSFMGSLPQETNLTLKVC | 2.19
179 | RQHHHQSSFAGSLPQETNLTLKVC | 3.24
180 | RQHHHQSSFCGSLPQETNLTLKVC | 2.38
181 | RQHHHQSSFQGSLPQETNLTLKVC | 3.06
182 | RQHHHQSSFRGSLPQETNLTLKVC | 3.75
183 | RQHHHQSSFWGSLPQETNLTLKVC | 1.99
184 | RQHHHQSSFLGSLPQETNLTLKVC | 2.25
185 | RQHHHQSSFVGSLPQETNLTLKVC | 2.65
186 | RQHHHQSSFHGSLPQETNLTLKVC | 2.77
187 | RQHHHQSSFDGSLPQETNLTLKVC | 2.99
188 | RQHHHQSSFNGSLPQETNLTLKVC | 2.69
